This is an account of results in patent US20180222961A1 (IMMATICS BIOTECHNOLOGIES, published 2018).

In assay [1] the target is T1, human recombinant HLA-B*08:01 and b2m (human).
T1 construct: expressed in E. coli and purified; stability of the peptide-MHC complex read as b2m associated with the heavy chain over time at 37 C
Put plainly: pMHC dissociation assay at 37 C; mean half-life grade. As for the experimental part: Peptide-MHC stability assays for HLA-B*08:01 peptides were performed. The data were obtained using a proximity based, homogenous, real-time assay in order to measure the dissociation of peptides from HLA class I molecules. First, human recombinant HLA-B*08:01 and b2m were expressed in E. coli and purified in a series of liquid chromatography based steps (Ferre et al., 2003; Ostergaard et al., 2001). Then, the stability of a peptide-MHC complex (pMHC) was determined by measuring the amount of b2m associated with the MHC heavy chain over time at 37° C. (Harndahl et al., 2012). The stability of each pMHC, expressed as the half life of b2m associated with the respective heavy chain, was calculated by fitting the data to a one-phase dissociation equation.

The next assay concerns the target T2, HLA-A*01:01 (human).
T2 construct: also called peptide-receptive MHC molecules
Put plainly: UV-exchange b2m ELISA; exchange-yield grade. The essentials: (§1)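 Exchange yield assessed by anti-β2m ELISA of UV-exchanged peptide-MHC monomers; absorbance at 450 nm compared with monomer standard curve.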

The next assay deals with T3, HLA-A*24:02 (human).
T3 construct: also called peptide-receptive MHC molecules
Put plainly: UV-exchange b2m ELISA; exchange-yield grade. The essentials: as §1

B1: YLLEKSRVI (peptide)
peptide: YLLEKSRVI
As to B1, the “mean half-life (T1/2) of peptide-MHC complex” value (shortened to “mean half-life”) in assay [1] was 4 to 6 h.

B2: FVDNQYWRY (peptide)
peptide: FVDNQYWRY
Take B2: the peptide exchange yield with HLA-A*01:01 was 50 to 75%.

B3: KYVKVFHQF (peptide)
peptide: KYVKVFHQF
The molecule B3 displayed a peptide exchange yield in the assay with HLA-A*24:02 of more than 75%.

B4: DMDEEIEAEY (peptide)
peptide: DMDEEIEAEY
B4 registered a peptide exchange yield in the assay with HLA-A*01:01 of 20 to 50%.

B5: RYGPVFTV (peptide)
peptide: RYGPVFTV
In turn, B5 yielded a peptide exchange yield in the assay with HLA-A*24:02 of more than 75%.

B6: LPRLKAFMI (peptide)
peptide: LPRLKAFMI
Turning to B6, in assay [1], the “mean half-life” value lay within 4 to 6 h.

B7: RWEKTDLTY (peptide)
peptide: RWEKTDLTY
In the case of B7, the peptide exchange yield with HLA-A*01:01 lay within 20 to 50%.

B8: RFTTMLSTF (peptide)
peptide: RFTTMLSTF
Turning to B8, the peptide exchange yield in the assay with HLA-A*24:02 was more than 75%.

B9: SYFRGFTLI (peptide)
peptide: SYFRGFTLI
In the assay with HLA-A*24:02, B9 had a peptide exchange yield of more than 75%.

B10: TVTGAEQIQY (peptide)
peptide: TVTGAEQIQY
Molecule B10 returned a peptide exchange yield in the assay with HLA-A*01:01 of 20 to 50%.

B11: VYNHTTRPL (peptide)
peptide: VYNHTTRPL
Regarding B11, in the assay with HLA-A*24:02, the peptide exchange yield is more than 75%.

B12: RYLAVVHAVF (peptide)
peptide: RYLAVVHAVF
In the case of B12, the peptide exchange yield in the assay with HLA-A*24:02 was more than 75%.

B13: ETIRSVGYY (peptide)
peptide: ETIRSVGYY
B13 had a peptide exchange yield with HLA-A*01:01 of 50 to 75%.

B14: IYSPQFSRL (peptide)
peptide: IYSPQFSRL
The molecule B14 showed a peptide exchange yield in the assay with HLA-A*24:02 of more than 75%.

B15: TAYMVSVAAF (peptide)
peptide: TAYMVSVAAF
B15 came in with a peptide exchange yield in the assay with HLA-A*24:02 of 50 to 75%.

B16: VYHDDKQPTF (peptide)
peptide: VYHDDKQPTF
The molecule B16 showed a peptide exchange yield with HLA-A*24:02 of more than 75%.

B17: HVKEKFLL (peptide)
peptide: HVKEKFLL
For the molecule B17, the “mean half-life” value in assay [1] fell in the range of 4 to 6 h.

B18: VLKHKLDEL (peptide)
peptide: VLKHKLDEL
B18: in assay [1], the “mean half-life” value fell in the range of 2 to 4 h.

B19: MLRKIAVAA (peptide)
peptide: MLRKIAVAA
Consider B19, for which the “mean half-life” value in assay [1] is 2 to 4 h.

B20: NAMLRKVAV (peptide)
peptide: NAMLRKVAV
Regarding B20, the “mean half-life” value in assay [1] is 2 to 4 h.

B21: SPVTSVHGGTY (peptide)
peptide: SPVTSVHGGTY
The molecule B21 came in with a peptide exchange yield in the assay with HLA-A*01:01 of 20 to 50%.

B22: MYKMKKPI (peptide)
peptide: MYKMKKPI
On to B22, for which, in assay [1], the “mean half-life” value was 2 to 4 h.

B23: FYFPTPTVL (peptide)
peptide: FYFPTPTVL
B23 registered a peptide exchange yield with HLA-A*24:02 of more than 75%.

B24: MPNLRSVDL (peptide)
peptide: MPNLRSVDL
Take B24: the “mean half-life” value in assay [1] is 4 to 6 h.

B25: YPKARLAF (peptide)
peptide: YPKARLAF
For the molecule B25, the “mean half-life” value in assay [1] was 6 to 10 h.

B26: DVKKKIKEV (peptide)
peptide: DVKKKIKEV
For the molecule B26, the “mean half-life” value in assay [1] was in the range of 2 to 4 h.

B27: LYQPRASEM (peptide)
peptide: LYQPRASEM
B27 registered a peptide exchange yield with HLA-A*24:02 of 50 to 75%.

B28: LPKLAGLL (peptide)
peptide: LPKLAGLL
Regarding B28, the “mean half-life” value in assay [1] lay within 2 to 4 h.

B29: KYEKIFEML (peptide)
peptide: KYEKIFEML
Molecule B29 gave a peptide exchange yield in the assay with HLA-A*24:02 of more than 75%.

B30: KLKERNREL (peptide)
peptide: KLKERNREL
As for B30, the “mean half-life” value in assay [1] lay in the range of 6 to 10 h.

B31: HLLLKVLAF (peptide)
peptide: HLLLKVLAF
For the molecule B31, the “mean half-life” value in assay [1] lay in the range of 4 to 6 h.

B32: TSHERLTTL (peptide)
peptide: TSHERLTTL
In the case of B32, the “mean half-life” value in assay [1] was 4 to 6 h.

B33: EAMKRLSYI (peptide)
peptide: EAMKRLSYI
On to B33, for which the “mean half-life” value in assay [1] was in the range of 2 to 4 h.

B34: NVTMKVVSVLY (peptide)
peptide: NVTMKVVSVLY
B34: in the assay with HLA-A*01:01, the peptide exchange yield is 50 to 75%.

B35: SYSDLHYGF (peptide)
peptide: SYSDLHYGF
B35 returned a peptide exchange yield with HLA-A*24:02 of more than 75%.

B36: QGLLRPVF (peptide)
peptide: QGLLRPVF
For the molecule B36, the “mean half-life” value in assay [1] was in the range of 4 to 6 h.

B37: VMEQSAGIMY (peptide)
peptide: VMEQSAGIMY
Molecule B37 registered a peptide exchange yield in the assay with HLA-A*01:01 of 20 to 50%.

B38: KYVAELSLL (peptide)
peptide: KYVAELSLL
The molecule B38 showed a peptide exchange yield in the assay with HLA-A*24:02 of more than 75%.

B39: VLLDEGAMLLY (peptide)
peptide: VLLDEGAMLLY
B39 displayed a peptide exchange yield in the assay with HLA-A*01:01 of 20 to 50%.

B40: QLDSNRLTY (peptide)
peptide: QLDSNRLTY
In turn, B40 showed a peptide exchange yield with HLA-A*01:01 of 50 to 75%.

B41: KYPVHIYRL (peptide)
peptide: KYPVHIYRL
For the molecule B41, the peptide exchange yield with HLA-A*24:02 was more than 75%.

B42: FAFRKEAL (peptide)
peptide: FAFRKEAL
For B42, the “mean half-life” value in assay [1] was in the range of 4 to 6 h.

B43: SLRLKNVQL (peptide)
peptide: SLRLKNVQL
With B43, the “mean half-life” value in assay [1] was 2 to 4 h.

B44: QAKTHSTL (peptide)
peptide: QAKTHSTL
As for B44, the “mean half-life” value in assay [1] lay within 2 to 4 h.

B45: TSMPRSSAM (peptide)
peptide: TSMPRSSAM
As for B45, the “mean half-life” value in assay [1] is 6 to 10 h.

B46: LLDEGAMLLY (peptide)
peptide: LLDEGAMLLY
The molecule B46 registered a peptide exchange yield in the assay with HLA-A*01:01 of more than 75%.

B47: VLLPRLVSC (peptide)
peptide: VLLPRLVSC
For B47, the “mean half-life” value in assay [1] lay in the range of 2 to 4 h.

B48: DMKYKNRV (peptide)
peptide: DMKYKNRV
As for B48, the “mean half-life” value in assay [1] fell in the range of 2 to 4 h.

B49: RYSDSVGRVSF (peptide)
peptide: RYSDSVGRVSF
B49 returned a peptide exchange yield with HLA-A*24:02 of more than 75%.

B50: SYNEHWNYL (peptide)
peptide: SYNEHWNYL
For B50, the peptide exchange yield with HLA-A*24:02 is more than 75%.

B51: VYTFLSSTL (peptide)
peptide: VYTFLSSTL
B51 came in with a peptide exchange yield in the assay with HLA-A*24:02 of more than 75%.

B52: TPKLRETSI (peptide)
peptide: TPKLRETSI
B52: the “mean half-life” value in assay [1] was 4 to 6 h.

B53: ALKTTTTAL (peptide)
peptide: ALKTTTTAL
Take B53: the “mean half-life” value in assay [1] lay in the range of 2 to 4 h.

B54: VYTPTLGTL (peptide)
peptide: VYTPTLGTL
Consider B54, for which the peptide exchange yield with HLA-A*24:02 is more than 75%.

B55: VFVSFSSLF (peptide)
peptide: VFVSFSSLF
In turn, B55 registered a peptide exchange yield in the assay with HLA-A*24:02 of 50 to 75%.

B56: MAAVKQAL (peptide)
peptide: MAAVKQAL
With B56, the “mean half-life” value in assay [1] was 4 to 6 h.

B57: SFAPRSAVF (peptide)
peptide: SFAPRSAVF
Take B57: the peptide exchange yield with HLA-A*24:02 was more than 75%.

B58: SIKTKSAEM (peptide)
peptide: SIKTKSAEM
Turning to B58, the “mean half-life” value in assay [1] was in the range of 6 to 10 h.

B59: MGSARVAEL (peptide)
peptide: MGSARVAEL
With B59, the “mean half-life” value in assay [1] was in the range of 4 to 6 h.
